Data on eight molecules can be found in patent US10487307B2, “Culture method for pluripotent stem cells” (FUJIFILM CORPORATION, priority 2013, dated 2019).

Data set [1] in a line: Aggregation after dialysis of purified polypeptide solution. Type of data set: physicochemical. The arrangement: key: G: The formation of an aggregate was not observed.; A: The formation of particles having a particle size of about 100 nm was observed.; B: The formation of an aggregation of particles having a particle size of equal to or greater than 1 mm was visually observed. The method, then: For RCP-1 to RCP-11, each of the purified polypeptide solutions was dialyzed using Slide-A-Lizer (3.5 K MWCO.). Basically, by using a dialysis buffer (PBS, 1.5 M NaCl, 0.5 M L-arginine, 1 mM EDTA, pH 7.4) as an outer dialysate, urea was removed by stepwise dialysis. The concentration of the end-product of dialysis was calculated from the absorbence at 280 nm by using NanoDrop (Thermo Fisher Scientific Inc.).
Whether or not aggregation was occurred was evaluated based on the scale of A, and B as shown below.
G: The formation of an aggregate was not observed.
A: The formation of particles having a particle size of about 100 nm was observed.
B: The formation of an aggregation of particles having a particle size of equal to or greater than 1 mm was visually observed.

The next data set relates to human iPS cells ("Tic"). The experiment in a line: Cell adhesiveness evaluation 1 (ALP activity of adhesive iPS cells). It counts as cell-based. Conditions: 30,000 cells/well, 24 hours, natural vitronectin (sample 15) = 100%, n=3. Here is the method: The cell adhesiveness of human iPS cells (“Tic”: Cell No. JCRB 1331: from National Institute of Biomedical Innovation. [567-0085, 7-6-8 Asagi Saito Ibaraki-City Osaka]) with respect to the aforementioned polypeptides was evaluated in the following manner.
As feeder cells for retaining the human iPS cells, EmbryoMax (registered trademark) (early mouse embryonic fibroblasts: resistant to hygromycin, treated with mitomycin C, derived from C57/BL6, third passage) (Millipore Corporation) was used. By using DMEM (Invitrogen) and a 10% (v/v) fetal bovine serum medium, the feeder cells were cultured for 24 hours and attached to a T25 flask (Corning Incorporated). As a medium for the human iPS cells, the one obtained by adding FGF-2 (Sigma-Aldrich Co, LLC.) to a medium composed as shown in Table 6 at a final concentration of 10 ng/ml was used.
By using the aforementioned medium, the human iPS cells were retained and cultured in a 5% (v/v, the same unit will be used hereinafter) CO2 incubator at 37° C. Except for the day after the seeding of the iPS cells, the medium was replaced every day. The subculture operation was performed by exfoliating the cells by using Dispase II (neutral protease Grade II, Roche) and separating the cells in an appropriate size by a pipetting operation.
The iPS cells cultured as described above were treated with TrypLE Select (Invitrogen) for 5 minutes at 37° C. and separated into a single cell. After being subjected to centrifugation for 2 minutes at 300 rpm, the cells were collected and suspended in TeSR2 (a medium not containing a heterogeneous animal-derived component and a serum component, STEMCELL Technologies.) containing Y-27362 ((R)-(+)-trans-N-(4-pyridyl)-4-(1-aminoethyl)-cyclohexane carboxamide.2HCl.H2O, an Rho binding kinase inhibitor, Wako Pure Chemical Industries, Ltd.) at a final concentration of 10 μM.
Each of RCP-1 to RCP-11, RCP-21, RCP-25, and RCP-26 as control, human vitronectin (extracted from human serum, BD Biosciences), and recombinant laminin (rLaminin-5: Oriental Yeast Co., ltd. and Human Recombinant Laminin-511: BIOLAMINA AB) was added to and suspended in a predetermined buffer (a dialysis buffer used in <GRAVY value and aggregation characteristics> described above for RCP-1 to RCP-11, and PBS for RCP-21, RCP-25, human vitronectin, and recombinant laminin) at the concentration shown in Table 7, thereby preparing samples 1 to 17. The samples were added to the respective wells of a 96-well plate and adsorbed onto the plate by being held for 2 hours at 37° C.
Into the respective wells of the 96-well plate treated with the peptides, iPS cells were seeded at a cell density of 30,000 cells/well. After the cells were cultured for 24 hours, the nonadhesive cells were washed off with PBS, and only the adhesive cells were immobilized by using 4% (v/v) paraformaldehyde (Wako Pure Chemical Industries, Ltd.). By using an Attophos (registered trademark) AP Fluorescent Substrate System (Promega Corporation), the ALP activity was calculated, and from the calibration curve, the number of undifferentiated iPS cells having the ALP activity was calculated. In Table 7, the cell adhesion rate is expressed as a ratio calculated by regarding the cell adhesion rate obtained from the sample 15 using natural vitronectin as being 100%. n=3.

The next data set has as its system iPS cells. Put plainly: Growth evaluation, number of cells after 3 days. It counts as cell-based, human. Conditions: 5,000 cells/well, sample 1 (RCP-1) = 100%. The method, then: By adding RCP-1 to RCP-11 and Human Recombinant Laminin-511 as control at the concentration shown in Table 9, samples 1 to 12 were prepared. The samples were seeded into a 96-well plate, onto which each of the polypeptides was adsorbed in the same manner as in <Cell adhesiveness evaluation 1>, at a ratio of 5,000 cells/well and cultured for 3 days in a CO2 incubator at 37° C. The number of cells after 3 days was calculated in the same manner as in <Cell adhesiveness evaluation 1>. In Table 9, the number of cells after 3 days is expressed as a ratio calculated by regarding the number of cells obtained by using the sample 1 as being 100%.

B1: RCP-6: recombinant polypeptide for culture, SEQ ID NO: 20; vitronectin positions 1-55, 269-459, C274S (protein)
chain: MDQESCKGRCTEGFNVDKKCQCDELCSYYQSCCTDYTAECKPQVTRGDVFTMPEDESQEESEGSSLSAVFEHFAMMQRDSWEDIFELLFWGRTSAGTRQPQFISRDWHGVPGQVDAAMAGRIYISGMAPRPSLAKKQRFRHRNRKGYRSQRGHSRGRNQNSRRPSRATWLSLFSSEESNLGANNYDDYRMDWLVPATSEPIQSVFFFSGDKYYRVNLRTRRVDTVDPPYPRSIAQYWLGSPAPGHL
modifications: Vitronectin-derived Recombinant Protein (RCP-6)
notes: vitronectin positions 1-55, 269-459, C274S
For the molecule B1, the Aggregation result in data set [1] is given as “A”. In addition, the “Cell adhesion rate (%)” value in the data set on human iPS cells ("Tic") (added amount 20 μg/cm^2) came to 92.8 ± 4.4%. For the same molecule, the “Number of cells after 3 days (%)” value with iPS cells (added amount 20 μg/cm^2) turned out to be 70.5%.

B2: RCP-8: recombinant polypeptide for culture, SEQ ID NO: 22; vitronectin positions 1-55, 269-373, 374-379, C274S (protein)
chain: MDQESCKGRCTEGFNVDKKCQCDELCSYYQSCCTDYTAECKPQVTRGDVFTMPEDESQEESEGSSLSAVFEHFAMMQRDSWEDIFELLFWGRTSAGTRQPQFISRDWHGVPGQVDAAMAGRIYISGMAPRPSLAKKQRFRHRNRKGYRSQRGHSRGRNQNSRRPSR
modifications: Vitronectin-derived Recombinant Protein (RCP-8)
notes: vitronectin positions 1-55, 269-373, 374-379, C274S
In the case of B2, the Aggregation result in data set [1] is recorded as “A”. Moreover, the “Cell adhesion rate (%)” value in the data set on human iPS cells ("Tic") (added amount 5 μg/cm^2) was found to be 89.2 ± 1.4%. Further, the “Number of cells after 3 days (%)” value in the data set on iPS cells (added amount 5 μg/cm^2) amounted to 171.0%.

B3: RCP-3: recombinant polypeptide for culture, SEQ ID NO: 17; vitronectin positions 1-55, 322-341, 342-373 (protein)
chain: MDQESCKGRCTEGFNVDKKCQCDELCSYYQSCCTDYTAECKPQVTRGDVFTMPEDEGVPGQVDAAMAGRIYISGMAPRPSLAKKQRFRHRNRKGYRSQRGHSRGRNQN
modifications: Vitronectin-derived Recombinant Protein (RCP-3)
As to B3, the Aggregation result in data set [1] is “G”. Besides, the “Cell adhesion rate (%)” value in the data set on human iPS cells ("Tic") (added amount 20 μg/cm^2) worked out at 106.1 ± 4.5%. In the data set with iPS cells (added amount 20 μg/cm^2), the “Number of cells after 3 days (%)” value amounted to 109.7%.

B4: RCP-9: recombinant polypeptide for culture, SEQ ID NO: 23; vitronectin positions 1-55, 269-373, 374-389, C274S (protein)
chain: MDQESCKGRCTEGFNVDKKCQCDELCSYYQSCCTDYTAECKPQVTRGDVFTMPEDESQEESEGSSLSAVFEHFAMMQRDSWEDIFELLFWGRTSAGTRQPQFISRDWHGVPGQVDAAMAGRIYISGMAPRPSLAKKQRFRHRNRKGYRSQRGHSRGRNQNSRRPSRATWLSLFSSE
modifications: Vitronectin-derived Recombinant Protein (RCP-9)
notes: vitronectin positions 1-55, 269-373, 374-389, C274S
B4: in data set [1], the Aggregation result is on record as “B (The formation of an aggregation of particles having a particle size of equal to or greater than 1 mm was visually observed.)”. Also, in the data set with human iPS cells ("Tic") (added amount 20 μg/cm^2), the “Cell adhesion rate (%)” value turned out to be 95.5 ± 10.2%. Besides, the “Number of cells after 3 days (%)” value with iPS cells (added amount 20 μg/cm^2) is on record as 105.8%.

B5: RCP-7: recombinant polypeptide for culture, SEQ ID NO: 21; vitronectin positions 1-55, 269-373, C274S (protein)
chain: MDQESCKGRCTEGFNVDKKCQCDELCSYYQSCCTDYTAECKPQVTRGDVFTMPEDESQEESEGSSLSAVFEHFAMMQRDSWEDIFELLFWGRTSAGTRQPQFISRDWHGVPGQVDAAMAGRIYISGMAPRPSLAKKQRFRHRNRKGYRSQRGHSRGRNQN
modifications: Vitronectin-derived Recombinant Protein (RCP-7)
notes: vitronectin positions 1-55, 269-373, C274S
Take B5: in data set [1], the Aggregation entry is on record as “A”. Further, the “Cell adhesion rate (%)” value with human iPS cells ("Tic") (added amount 5 μg/cm^2) was 88.6 ± 8.1%. Besides, in the data set on iPS cells (added amount 5 μg/cm^2), the “Number of cells after 3 days (%)” value came to 89.9%.

B6: RCP-2: recombinant polypeptide for culture, SEQ ID NO: 16; vitronectin positions 1-55 and 342-373 (protein)
chain: MDQESCKGRCTEGFNVDKKCQCDELCSYYQSCCTDYTAECKPQVTRGDVFTMPEDEPRPSLAKKQRFRHRNRKGYRSQRGHSRGRNQN
modifications: Vitronectin-derived Recombinant Protein (RCP-2)
In the case of B6, the Aggregation result in data set [1] is “G”. In the data set on human iPS cells ("Tic") (added amount 20 μg/cm^2), the “Cell adhesion rate (%)” value is on record as 98.7 ± 6.2%. For the same molecule, the “Number of cells after 3 days (%)” value with iPS cells (added amount 20 μg/cm^2) came out at 81.7%.

B7: RCP-4: recombinant polypeptide for culture, SEQ ID NO: 18; vitronectin positions 1-55, 312-341, 342-373 (protein)
chain: MDQESCKGRCTEGFNVDKKCQCDELCSYYQSCCTDYTAECKPQVTRGDVFTMPEDEQPQFISRDWHGVPGQVDAAMAGRIYISGMAPRPSLAKKQRFRHRNRKGYRSQRGHSRGRNQN
modifications: Vitronectin-derived Recombinant Protein (RCP-4)
B7: the Aggregation entry in data set [1] is “G”. The “Cell adhesion rate (%)” value in the data set with human iPS cells ("Tic") (added amount 20 μg/cm^2) is 100.1 ± 4.5%. In addition, the “Number of cells after 3 days (%)” value in the data set on iPS cells (added amount 20 μg/cm^2) is on record as 120.7%.

B8: RCP-10: recombinant polypeptide for culture, SEQ ID NO: 24; vitronectin positions 1-55, 269-373, 374-399, C274S (protein)
chain: MDQESCKGRCTEGFNVDKKCQCDELCSYYQSCCTDYTAECKPQVTRGDVFTMPEDESQEESEGSSLSAVFEHFAMMQRDSWEDIFELLFWGRTSAGTRQPQFISRDWHGVPGQVDAAMAGRIYISGMAPRPSLAKKQRFRHRNRKGYRSQRGHSRGRNQNSRRPSRATWLSLFSSEESNLGANNYD
modifications: Vitronectin-derived Recombinant Protein (RCP-10)
notes: vitronectin positions 1-55, 269-373, 374-399, C274S
Take B8: the Aggregation result in data set [1] is on record as “B (The formation of an aggregation of particles having a particle size of equal to or greater than 1 mm was visually observed.)”. For the same molecule, in the data set on human iPS cells ("Tic") (added amount 20 μg/cm^2), the “Cell adhesion rate (%)” value was 93.0 ± 7.8%. Moreover, the “Number of cells after 3 days (%)” value in the data set with iPS cells (added amount 20 μg/cm^2) is 101.9%.
